In the supplement of paper PMC11246515:
± gives the standard deviation of the averaged measurements.

Assay: total protein half-life in vivo (active degradation + dilution); higher = more stable protein
[1] = E. coli NCM3722 delta-clpP delta-lon delta-hslV, growth: N-lim chemostat, doubling time 6 h
[2] = E. coli NCM3722 delta-clpP, growth: N-lim chemostat, doubling time 6 h
[3] = E. coli NCM3722 delta-hslV, growth: N-lim chemostat, doubling time 6 h
[4] = E. coli NCM3722 delta-lon, growth: N-lim chemostat, doubling time 6 h
[5] = E. coli NCM3722 delta-smpB, growth: N-lim chemostat, doubling time 6 h
[6] = wild type E. coli NCM3722, growth: C-lim chemostat, doubling time 3 h
[7] = wild type E. coli NCM3722, growth: C-lim chemostat, doubling time 6 h
[8] = wild type E. coli NCM3722, growth: C-lim chemostat, doubling time 12 h
[9] = wild type E. coli NCM3722, growth: N-lim chemostat, doubling time 6 h
[10] = wild type E. coli NCM3722, growth: N-lim chemostat, doubling time 12 h
[11] = wild type E. coli NCM3722, growth: P-lim chemostat, doubling time 6 h
[12] = wild type E. coli NCM3722, growth: P-lim chemostat, doubling time 12 h

Sequence | total protein half-life in vivo [1] [h] | total protein half-life in vivo [2] [h] | total protein half-life in vivo [3] [h] | total protein half-life in vivo [4] [h] | total protein half-life in vivo [5] [h] | total protein half-life in vivo [6] [h] | total protein half-life in vivo [7] [h] | total protein half-life in vivo [8] [h] | total protein half-life in vivo [9] [h] | total protein half-life in vivo [10] [h] | total protein half-life in vivo [11] [h] | total protein half-life in vivo [12] [h]
MKKKIESYQGAAGGWGAVKSVANAVRKQMDIRQDVIAMFDMNKPEGFDCPGCAWPDPKHSASFDICENGAKAIAWEVTDKQVNASFFAENTVQSLLTWGDHELEAAGRLTQPLKYDAVSDCYKPLSWQQAFDEIGARLQSYSDPNQVEFYTSGRTSNEAAFLYQLFAREYGSNNFPDCSNMCHEPTSVGLAASIGVGKGTVLLEDFEKCDLVICIGHNPGTNHPRMLTSLRALVKRGAKMIAINPLQERGLERFTAPQNPFEMLTNSETQLASAYYNVRIGGDMALLKGMMRLLIERDDAASAAGRPSLLDDEFIQTHTVGFDELRRDVLNSEWKDIERISGLSQTQIAELADAYAAAERTIICYGMGITQHEHGTQNVQQLVNLLLMKGNIGKPGAGICPLRGHSNVQGDRTVGITEKPSAEFLARLGERYGFTPPHAPGHAAIASMQAICTGQARALICMGGNFALAMPDREASAVPLTQLDLAVHVATKLNRSHLLTARHSYILPVLGRSEIDMQKNGAQAVTVEDSMSMIHASRGVLKPAGVMLKSECAVVAGIAQAALPQSVVAWEYLVEDYDRIRNDIEAVLPEFADYNQRIRHPGGFHLINAAAERRWMTPSGKANFITSKGLLEDPSSAFNSKLVMATVRSHDQYNTTIYGMDDRYRGVFGQRDVVFMSAKQAKICRVKNGERVNLIALTPDGKRSSRRMDRLKVVIYPMADRSLVTYFPESNHMLTLDNHDPLSGIPGYKSIPVELEPSN | 5.48 ± 0.53 | 3.76 ± 1.3 | 4.01 ± 0.19 | 4.01 ± 0.03 | 3.52 ± 0.085 | 2.35 ± 0.34 | 2.95 ± 0.35 | 3.6 ± 0.45 | 3.5 ± 0.52 | 4.87 ± 1.3 | 3.7 ± 0.2 | 4.31 ± 0.17
MKKLINDVQDVLDEQLAGLAKAHPSLTLHQDPVYVTRADAPVAGKVALLSGGGSGHEPMHCGYIGQGMLSGACPGEIFTSPTPDKIFECAMQVDGGEGVLLIIKNYTGDILNFETATELLHDSGVKVTTVVIDDDVAVKDSLYTAGRRGVANTVLIEKLVGAAAERGDSLDACAELGRKLNNQGHSIGIALGACTVPAAGKPSFTLADNEMEFGVGIHGEPGIDRRPFSSLDQTVDEMFDTLLVNGSYHRTLRFWDYQQGSWQEEQQTKQPLQSGDRVIALVNNLGATPLSELYGVYNRLTTRCQQAGLTIERNLIGAYCTSLDMTGFSITLLKVDDETLALWDAPVHTPALNWGK | 5.88 ± 0.29 | 5.22 ± 0.51 | 5.21 ± 0.23 |  | 5.33 ± 0.57 | 2.78 ± 0.28 | 5.7 ± 0.2 | 10.4 ± 0.73 | 5.72 ± 0.15 | 10.3 ± 1.2 | 5.75 ± 0.93 | 12.5 ± 0.43
MKKLKINYLFIGILALLLAVALWPSIPWFGKADNRIAAIQARGELRVSTIHTPLTYNEINGKPFGLDYELAKQFADYLGVKLKVTVRQNISQLFDDLDNGNADLLAAGLVYNSERVKNYQPGPTYYSVSQQLVYKVGQYRPRTLGNLTAEQLTVAPGHVVVNDLQTLKETKFPELSWKVDDKKGSAELMEDVIEGKLDYTIADSVAISLFQRVHPELAVALDITDEQPVTWFSPLDGDNTLSAALLDFFNEMNEDGTLARIEEKYLGHGDDFDYVDTRTFLRAVDAVLPQLKPLFEKYAEEIDWRLLAAIAYQESHWDAQATSPTGVRGMMMLTKNTAQSLGITDRTDAEQSISGGVRYLQDMMSKVPESVPENERIWFALAAYNMGYAHMLDARALTAKTKGNPDSWADVKQRLPLLSQKPYYSKLTYGYARGHEAYAYVENIRKYQISLVGYLQEKEKQATEAAMQLAQDYPAVSPTELGKEKFPFLSFLSQSSSNYLTHSPSLLFSRKGSEEKQN [P0AGC5] | 4.75 |  |  |  |  |  |  |  | 1.64 |  |  | 3.13
MKKLVATAPRVAALVEYEDRAILANEVKIRVRFGAPKHGTEVVDFRAASPFIDEDFNGEWQMFTPRPADAPRGIEFGKFQLGNMVVGDIIECGSDVTDYAVGDSVCGYGPLSETVIINAVNNYKLRKMPQGSSWKNAVCYDPAQFAMSGVRDANVRVGDFVVVVGLGAIGQIAIQLAKRAGASVVIGVDPIAHRCDIARRHGADFCLNPIGTDVGKEIKTLTGKQGADVIIETSGYADALQSALRGLAYGGTISYVAFAKPFAEGFNLGREAHFNNAKIVFSRACSEPNPDYPRWSRKRIEETCWELLMNGYLNCEDLIDPVVTFANSPESYMQYVDQHPEQSIKMGVTF | 6.29 ± 0.3 |  |  |  |  |  |  |  |  |  |  | 
MKKLVLAALLASFTFGASAAEKINFGVSATYPPFESIGANNEIVGFDIDLAKALCKQMQAECTFTNHAFDSLIPSLKFRKYDAVISGMDITPERSKQVSFTTPYYENSAVVIAKKDTYKTFADLKGKRIGMENGTTHQKYIQDQHPEVKTVSYDSYQNAFIDLKNGRIDGVFGDTAVVNEWLKTNPQLGVATEKVTDPQYFGTGLGIAVRPDNKALLEKLNNALAAIKADGTYQKISDQWFPQ | 4.29 ± 0.69 | 5.1 ± 0.92 | 5.91 ± 0.093 | 6.25 ± 0.23 | 5.73 ± 0.62 | 2.99 ± 0.12 | 6.13 ± 0.83 | 9.32 ± 1.2 | 5.47 ± 0.24 | 11.9 ± 0.32 | 5.3886 ± 0.0029 | 11 ± 1.2
MKKNSYLLSCLAIAVSSACHAEVLTYPDPLGSSQSDFGGTGLLQMPNARIAPEGEFSVNYRDNDQYRFYSTSVALFPWLEGTIRYTDVRTRKYSQWEDFSGDQSYKDKSFDFKLRLWEEGYWLPQVAFGKRDIAGTGLFDGEYLVASKQAGPFDFTLGMAWGYAGNAGNITNPFCRVSDKYCHRAESHDAGDISFSDIFRGPASIFGGIEYQTPWNPLRLKLEYDGNNYQNDFAGKLPQASHFNVGAVYRAASWADLNLSYERGNTLMFGFTLRTNFNDLRPALRDTPKPAYQPAPESEGLQYTTVANQLTALKYNAGFDAPEIQLRDKTLYMSGQQYKYRDSREAVDRANRILVNNLPQGVEKISVTQKREHMAMVTTETDVASLRKQLAGTAPGQSEPLQQQRVEAEDLSAFGRGYRIREDRFSYSFNPTLSQSLGGPEDFYMFQLGLMSSARYWFTDHLLLDGGIFTNIYNNYDKFKSSLLPADSTLPRVRTHIRDYVRNDVYLNNLQANYFADLGNGFYGQVYGGYLETMYAGVGSELLYRPLDACWALGVDVNYVKQRDWDNMMRFTDYSTPTGFVTAYWNPPTLNGVLMKLSVGQYLAKDKGATIDVAKRFDSGVAVGVWAAISNVSKDDYGEGGFSKGFYISIPFDLMTIGPNRNRAVVSWTPLTRDGGQMLSRKYQLYPMTAEREVPVGQ | 4.97 ± 0.12 |  | 6.08 ± 0.65 |  |  | 3.09 |  | 10.3 | 6.71 |  |  | > 16
MKKPNHSGSGQIRIIGGQWRGRKLPVPDSPGLRPTTDRVRETLFNWLAPVIVDAQCLDCFAGSGALGLEALSRYAAGATLIEMDRAVSQQLIKNLATLKAGNARVVNSNAMSFLAQKGTPHNIVFVDPPFRRGLLEETINLLEDNGWLADEALIYVESEVENGLPTVPANWSLHREKVAGQVAYRLYQREAQGESDAD [P0ADX9] | 5.34 ± 0.45 | 4.8 ± 0.15 | 4.49 ± 0.13 | 5.32 ± 0.09 | 5.18 ± 0.6 | 3.08 ± 0.15 | 5.57 ± 0.19 | 10.1 ± 1.5 | 4.49 ± 0.68 | 12.5 | 5.1 ± 0.26 | 11.1 ± 0.63
